These results are taken from doi:10.1101/2021.04.11.439388 (bioRxiv, 2021).

In assay [1] the target is T1, mouse PD-L1-Fc (mouse, UniProt Q9EP73). Nature of the assay: ELISA. (In general: ELISA stands for enzyme-linked immunosorbent assay.)
Assay [2] concerns the target T1, mouse PD-L1-Fc. Briefly: ELISA. The source holds these as a separate data set.

T1 sequence (Q9EP73 19-239): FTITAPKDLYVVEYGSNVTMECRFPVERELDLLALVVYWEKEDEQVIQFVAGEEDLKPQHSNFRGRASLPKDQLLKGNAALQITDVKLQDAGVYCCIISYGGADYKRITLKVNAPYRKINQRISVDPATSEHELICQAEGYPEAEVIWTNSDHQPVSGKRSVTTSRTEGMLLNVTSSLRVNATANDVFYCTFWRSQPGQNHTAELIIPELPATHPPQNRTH

B1: PD-L1 nanobody Nb16 (VHH linked to an Fc fragment) (VHH)
VHH: QVQLQESGGGSVQAGGSLRLSCAASGYTDRNYWMGWFRQAPGKEREGVAALYTRTGSTYYADSVKGRFTISHDNAKNTLYLQMNSLKPEDTAVYYCAADSNAYGLAPLHHYWGQGTQVTVSS
For orientation: IC50 means the midpoint of a concentration-inhibition curve. A high value points to weaker potency in that assay. Usually EC50 stands for the concentration giving half of the maximal effect. The molecule B1 registered an IC50 in the assay with mouse PD-L1-Fc [1] of 6.78 nM. For the same molecule, the response in the assay with mouse PD-L1-Fc [2] was half-maximal at 0.516 nM (EC50).
